According to publication PMC6681757:

Experiments:
[1] = biological target: isolated bovine cardiac native thin filaments (NTFs) (bovine) (UniProt Q3ZC07); assay: co-sedimentation; high-velocity cosedimentation with isolated bovine cardiac NTFs, absence of calcium (pCa 9)
[2] = biological target: isolated bovine cardiac native thin filaments (NTFs) (bovine) (UniProt Q3ZC07); assay: co-sedimentation; high-velocity cosedimentation with isolated bovine cardiac NTFs, presence of 32 μmol/L CaCl2 (pCa 4.5)
[3] = biological target: myosin S2Δ, the first 126 amino acids of myosin S2 (cardiac myosin); assay: MST; C1mC2 species (or native full-length cMyBP-C) titrated against myosin S2Δ; normalized MST curves; conditions in SI Appendix
[4] = biological target: isolated bovine cardiac native thin filaments (NTFs) (bovine) (UniProt Q3ZC07)
[5] = biological target: myosin S2Δ, the first 126 amino acids of myosin S2 (cardiac myosin)

What does the source list for “C1mC2 tris-phosphorylated by PKA on S288, S279 and S313 (C1mC2-3P) (domain or fragment)”?
Kd [1]: 60 µM; Kd [2]: 60 µM

With “λ-protein phosphatase–treated native full-length cMyBP-C isolated from rat ventricular tissue (from UniProt P56741 1-1274) (natural protein)” as the substance, how does the Kd [3] read?
Its Kd is 24.2 µM.

For “C1mC2-S288A, unphosphorylated (domain or fragment)”, which Kd [3] is on record?
The Kd was 20 µM.

How did the Kd [1] turn out when “C1mC2 bis-phosphorylated by PKA on S288 and S279 (C1mC2-2P) (domain or fragment)” was run?
Its Kd is 20 µM.

And the EC50 of activation of NTF-stimulated myosin S1 ATPase in the absence of calcium (pCa 9) [4]?
Its EC50 of activation of NTF-stimulated myosin S1 ATPase in the absence of calcium (pCa 9) is 5 μmol/L.

What does the source list for “C1mC2 monophosphorylated on S288 (C1mC2-1P) (domain or fragment)”?
Kd [3]: 30 µM; Kd [1]: 20 µM; EC50 of activation of NTF-stimulated myosin S1 ATPase in the absence of calcium (pCa 9) [4]: 2 μmol/L

“C1mC2 monophosphorylated on S308 by PKCε (domain or fragment)” was tested. Which Kd [3] did it give?
Its Kd is 30 µM.

And the Kd [1]?
Its Kd is 20 µM.

What does the source list for “C1mC2, recombinant fragment of rat cardiac myosin binding protein-C containing domains C1, the m-motif and C2, unphosphorylated (domain or fragment)”?
KD of the high-affinity binding site [3]: 20.7 µmol/L; KD of the low-affinity binding site [3]: > 400 µmol/L; EC50 of activation of thick filament structure (RLC BC probe orientation) in ventricular trabeculae, pCa 9 [5]: 10 μmol/L; Kd [1]: 20 µM; EC50 of activation of NTF-stimulated myosin S1 ATPase in the absence of calcium (pCa 9) [4]: 1 μmol/L; IC50 of inhibition of NTF-stimulated myosin S1 ATPase in the absence of calcium (pCa 9), [C1mC2] > 2 μmol/L [4]: 3 μmol/L; IC50 of inhibition of myosin S1-NTF ATPase during full calcium activation (pCa 4) [4]: 2 μmol/L; maximal inhibition of myosin S1-NTF ATPase during full calcium activation (pCa 4) [4]: 50%
